The values that follow come from article PMC10681713, “RAD51 paralogs synergize with RAD51 to protect reversed forks from cellular nucleases” (Nucleic Acids Research, 2023).

Data set [1] deals with Flag-RAD51C (of the BCDX2 complex) (human) (UniProt O43502). As to the kind of experiment: native MS; purified BCDX2 in 500 mM ammonium acetate pH 7.5; low activation energy for the intact complex, in-source trapping (-50 to -250 V) to dissociate it.
Data set [2] deals with T1, BCDX2 (RAD51B-RAD51C-RAD51D-XRCC2) (Homo sapiens, UniProt O15315;O43502;O75771;O43543 1-384;1-376;1-328;1-280).
T1 sequence 1: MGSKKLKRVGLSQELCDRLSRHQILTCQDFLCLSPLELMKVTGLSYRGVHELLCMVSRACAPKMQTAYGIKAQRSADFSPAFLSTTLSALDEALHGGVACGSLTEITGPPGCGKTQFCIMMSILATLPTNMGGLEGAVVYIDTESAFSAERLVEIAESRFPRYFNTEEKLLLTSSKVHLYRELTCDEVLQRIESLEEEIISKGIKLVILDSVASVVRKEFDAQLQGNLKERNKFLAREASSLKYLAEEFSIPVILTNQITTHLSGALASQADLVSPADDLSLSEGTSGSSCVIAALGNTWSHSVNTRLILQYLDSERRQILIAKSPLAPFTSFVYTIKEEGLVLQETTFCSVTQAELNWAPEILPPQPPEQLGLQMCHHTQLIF
T1 sequence 2: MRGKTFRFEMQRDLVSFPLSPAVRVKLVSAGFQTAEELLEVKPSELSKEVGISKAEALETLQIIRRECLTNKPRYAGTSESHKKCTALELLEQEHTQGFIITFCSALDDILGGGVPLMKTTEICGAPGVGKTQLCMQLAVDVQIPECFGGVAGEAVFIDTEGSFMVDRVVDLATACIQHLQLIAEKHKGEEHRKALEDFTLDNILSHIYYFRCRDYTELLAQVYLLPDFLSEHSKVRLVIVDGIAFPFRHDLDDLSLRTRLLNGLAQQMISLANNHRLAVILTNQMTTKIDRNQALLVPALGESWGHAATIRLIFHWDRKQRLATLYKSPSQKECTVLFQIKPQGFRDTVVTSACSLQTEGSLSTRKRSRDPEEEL
T1 sequence 3: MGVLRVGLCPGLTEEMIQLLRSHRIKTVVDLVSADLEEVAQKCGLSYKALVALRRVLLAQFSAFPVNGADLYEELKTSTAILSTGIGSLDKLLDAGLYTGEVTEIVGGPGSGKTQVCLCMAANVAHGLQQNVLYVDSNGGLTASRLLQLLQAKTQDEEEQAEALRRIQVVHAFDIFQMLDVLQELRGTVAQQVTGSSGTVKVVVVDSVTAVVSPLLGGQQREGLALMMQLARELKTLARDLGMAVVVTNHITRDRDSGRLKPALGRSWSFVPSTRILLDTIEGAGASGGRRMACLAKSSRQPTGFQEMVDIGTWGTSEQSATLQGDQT
T1 sequence 4: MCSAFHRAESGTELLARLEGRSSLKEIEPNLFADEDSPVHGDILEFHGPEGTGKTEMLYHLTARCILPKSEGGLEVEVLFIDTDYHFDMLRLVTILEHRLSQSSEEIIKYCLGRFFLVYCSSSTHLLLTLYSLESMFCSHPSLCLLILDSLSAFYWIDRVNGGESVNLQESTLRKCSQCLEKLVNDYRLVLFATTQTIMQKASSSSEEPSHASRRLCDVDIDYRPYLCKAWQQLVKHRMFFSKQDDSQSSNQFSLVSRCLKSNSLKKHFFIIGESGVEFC
As to the kind of experiment: EMSA; 1 mM ATP, 58 nM DNA; Buffer E (composition not in the material), 37 °C, 10 min; paralogs: 50 mM KCl, 1 mM ATP, 0.8% agarose gel; RAD51: 100 mM KCl, 2 mM ATP, 6% TBE-PAGE. The following applies: protein: recombinant, tags: N-terminal Flag on RAD51C, N-terminal His6 on XRCC2, TEV sites, copies: 1;1;1;1. In general terms: Mobility shift assays separate free from complexed probe on a gel.

Data set [3] deals with T2, CX3 (RAD51C-XRCC3) (Homo sapiens, UniProt O43502;O43542 1-376;1-346).
T2 sequence 1: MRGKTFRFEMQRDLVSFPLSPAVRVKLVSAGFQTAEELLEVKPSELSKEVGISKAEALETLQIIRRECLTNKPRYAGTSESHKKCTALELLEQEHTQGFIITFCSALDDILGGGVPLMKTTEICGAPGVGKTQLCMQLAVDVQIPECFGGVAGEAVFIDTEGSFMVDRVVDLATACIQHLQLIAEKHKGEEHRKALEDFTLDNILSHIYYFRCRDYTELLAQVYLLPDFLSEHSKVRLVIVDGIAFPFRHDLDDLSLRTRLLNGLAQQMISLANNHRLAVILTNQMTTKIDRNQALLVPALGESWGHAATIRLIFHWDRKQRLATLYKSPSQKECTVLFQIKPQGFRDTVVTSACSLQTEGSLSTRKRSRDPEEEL
T2 sequence 2: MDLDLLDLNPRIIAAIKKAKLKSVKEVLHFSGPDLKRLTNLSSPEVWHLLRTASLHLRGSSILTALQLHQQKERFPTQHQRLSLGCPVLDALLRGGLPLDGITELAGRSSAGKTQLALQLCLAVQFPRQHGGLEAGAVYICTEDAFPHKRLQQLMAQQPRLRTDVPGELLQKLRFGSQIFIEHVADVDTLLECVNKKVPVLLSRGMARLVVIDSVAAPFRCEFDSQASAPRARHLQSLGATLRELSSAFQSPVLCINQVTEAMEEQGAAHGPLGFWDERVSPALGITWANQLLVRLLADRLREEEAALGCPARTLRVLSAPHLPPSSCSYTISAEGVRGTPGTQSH
The data set is described as above. The settings on record: protein: recombinant, tags: N-terminal His6-Flag on RAD51C, copies: 1;1, 25 bp duplex.

Data set [4] concerns the target T3, His6-XRCC2 (of the BCDX2 complex) (human, UniProt O43543 1-280).
T3 construct: human XRCC2, cDNA; a TEV cutting site stands between the tag and the gene; No TEV cleavage is described in the purification; source: Expi293F cells, transfected, co-expressed from pcDNA3.4-tetrad-BCDX2; purified as part of the complex (Ni-NTA, anti-Flag M2 agarose, Superdex 200); not shown: His6, N-terminal, kept
T3 sequence (looked up): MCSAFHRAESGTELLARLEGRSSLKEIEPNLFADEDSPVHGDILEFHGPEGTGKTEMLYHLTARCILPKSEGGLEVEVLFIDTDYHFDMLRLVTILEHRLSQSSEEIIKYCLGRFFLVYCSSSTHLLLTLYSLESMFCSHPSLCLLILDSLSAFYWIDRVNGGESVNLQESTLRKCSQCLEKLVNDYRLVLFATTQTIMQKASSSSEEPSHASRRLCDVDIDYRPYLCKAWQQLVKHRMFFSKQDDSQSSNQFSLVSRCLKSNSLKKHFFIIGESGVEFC
As to the kind of experiment: native MS; purified BCDX2 in 500 mM ammonium acetate pH 7.5; low activation energy for the intact complex, in-source trapping (-50 to -250 V) to dissociate it. The settings on record: both partners purified.

In data set [1], “RAD51B (from UniProt O15315 1-384) (natural protein)” registered a stoichiometry N of 1.

B1: dsDNA 55 bp (oligo 13 + oligo 14) (dsDNA)
DNA 1: TTAGAGCTTAATTGCTGAATCTGGTGCTGTGGGTGAACCTGCAGGTGGGCAAAGA
DNA 2: TCTTTGCCCACCTGCAGGTTCACCCACAGCACCAGATTCAGCAATTAAGCTCTAA
As to B1, the binding result in data set [2] (label: 5' Cy3 on oligo 13, blunt) is reported as “no binding”.

B2: 5' overhang DNA (oligo 7 + oligo 8) (mixed)
DNA 1: GGGTGAACCTGCAGGTGGGCAAAGA
DNA 2: ACGCTGCCGAATTCTACCAGTGCCTTGCTAGGACATCTTTGCCCACCTGCAGGTTCACCC
modifications: oligo 8: phosphorothioate bonds at both ends (first 5 and last 5 linkages)
Turning to B2, the binding result in data set [2] (label: 5' Cy3 on oligo 7, 25 bp duplex, 5' overhang 35 nt on strand 2) is “binds”; in data set [3] (label: 5' Cy3 on oligo 7, 5' overhang 35 nt on strand 2), “binds”.

B3: 3' overhang DNA (oligo 9 + oligo 8) (mixed)
DNA 1: AGGCACTGGTAGAATTCGGCAGCGT
DNA 2: ACGCTGCCGAATTCTACCAGTGCCTTGCTAGGACATCTTTGCCCACCTGCAGGTTCACCC
modifications: oligo 8: phosphorothioate bonds at both ends (first 5 and last 5 linkages)
Turning to B3, the binding result was “binds” in data set [2] (label: 3' Cy3 on oligo 9, 25 bp duplex, 3' overhang 35 nt on strand 2) and “binds” in data set [3] (label: 3' Cy3 on oligo 9, 3' overhang 35 nt on strand 2).

B4: RAD51D (natural protein, human, UniProt O75771 1-328, looked up)
chain: MGVLRVGLCPGLTEEMIQLLRSHRIKTVVDLVSADLEEVAQKCGLSYKALVALRRVLLAQFSAFPVNGADLYEELKTSTAILSTGIGSLDKLLDAGLYTGEVTEIVGGPGSGKTQVCLCMAANVAHGLQQNVLYVDSNGGLTASRLLQLLQAKTQDEEEQAEALRRIQVVHAFDIFQMLDVLQELRGTVAQQVTGSSGTVKVVVVDSVTAVVSPLLGGQQREGLALMMQLARELKTLARDLGMAVVVTNHITRDRDSGRLKPALGRSWSFVPSTRILLDTIEGAGASGGRRMACLAKSSRQPTGFQEMVDIGTWGTSEQSATLQGDQT
notes: No tag is described on this chain; also called D (in BCDX2 and DX2); source: Expi293F cells, transfected, co-expressed with the other paralogs from one plasmid; purified as part of the complex (Ni-NTA, anti-Flag M2 agarose, Superdex 200)
Consider B4, for which, in data set [4], the “stoichiometry N” value is 1.

A word on the stoichiometry N: it is the number of molecules, sites or subunits per partner or assembly.
